For test [1], the target named is T1, recombinant soluble P-selectin (Homo sapiens (Human), UniProt P16109). The test is described as follows: ELISA on plates coated with rsP-selectin, COS cell supernatants. How it is done:
Media from the transfected COS cells were assayed by ELISA to quantify levels of human antibody produced and analyze capacity to bind to recombinant soluble P-selectin (rsP-selectin). Immulon microtiter plates ([…], #011-010-3355) were coated with 100 μl/well of a solution of goat anti-human IgG (whole molecule, SIGMA #I-1886) to a final concentration of 12.5 μg/ml or a solution of rsP-selectin (1.2 mg/ml) diluted in Dulbecco's phosphate buffered saline (DPBS). Plates were coated overnight at 4° C. or for 2 h at 37° C. The plates were then washed three times with DPBS. The plates were then blocked with 400 μl/well of DPBS+1% bovine serum albumin (BSA, SIGMA, #A-7888) for one h or longer at room temperature. The plates were then washed three times with DPBS.
Serial dilutions of the monoclonal antibodies in DPBS+ 1% BSA were added to the plates (100 μl/well), and the plates were incubated for 1 h at room temperature. The plates were then washed three times with DPBS. 100 μl/well of a second antibody (goat anti-human IgG peroxidase conjugate, SIGMA #A-8867) diluted 1 to 1000 in DPBS+ 1% BSA was added to the plates, and the plates were incubated for one h at room temperature. The plates were then washed three times with DPBS. […] The plates were read at 450 nm in a […] […]

The target of test [2] is T1, recombinant soluble P-selectin. Kind of test: competitive ELISA on rsP-selectin; competitor biotinylated PB1.3. As to the method: (§1) A 96-well plate (MICROTEST III, FALCON #3912) was coated with 50 μl/well of rsP-selectin (diluted to 2 μg/ml in DPBS) overnight at 4° C. or 90 min at 37° C. The plate was inverted and residual fluid was tapped away.
(§2) The coated plate and an additional blank plate were blocked with 200 µl/well of DPBS+1% bovine serum albumin (BSA, SIGMA #A-7888), for 1 h at room temperature. The blank plate was inverted and the residual blocking fluid was tapped away. The rsP-selectin coated plate was allow to continue blocking during the antibody dilution period. Serially diluted sample antibodies (in DPBS+1% BSA) were added to the blank plate at 50 µl/well. The initial concentrations of the antibodies were 100 µg/ml. Biotinylated-PB1.3 (diluted to 0.3 µg/ml in DPBS+1% BSA) was added to the sample antibodies in the blank plate, 50 µl/well, and mixed by pipetting up and down. The rsP-selectin coated plate was washed three times with DPBS. The sample antibody/biotinylated -PB1.3 mixture was pipetted into the plate coated with rsP-selectin, 50 µl/well, and allowed to incubate for one h at room temperature. The plate was then washed three times with DPBS.
(§3) Streptavidin horse radish peroxidase conjugate (PIERCE #21124) diluted 1:2000 in DPBS+1% BSA was added to the plate, 50 µl/well and allowed to incubate for 1 h at room temperature. The plate was then washed three times with DPBS.

Test [3] has the same target. Kind of test: competitive ELISA on rsP-selectin; reference unlabelled PB1.3. As to the method: as §1, §2, §3
For test [4] the target is unchanged. The test is described as follows: competitive ELISA on rsP-selectin; unlabelled PB1.3 against biotinylated PB1.3. How it is done: as §1, §2, §3
For test [5], the target named is P-selectin Δ5CRP (human, UniProt P16109). The test is described as follows: direct ELISA of COS cell supernatants.
In test [6] the target is T2, peptide CQNRYTDLVAIQNKNE
T2 peptide: CQNRYTDLVAIQNKNE-NH2
The test is described as follows: indirect: soluble peptide as competitor in ELISA of PB1.3 on affinity purified P-selectin. How it is done: III. […] Dilutions of mu MAb PB1.3 in DPBS+1% BSA were mixed with either 0.35 mg/ml CQNRYT-[…] (SEQ ID No: 1) in PBS, or as a control, PBS alone. After 1 hr, 50 μl of each antibody dilution was added to the microtiter plate, and incubated for 1 hr. The plate was washed with DPBS, and a 1 to 1000 dilution of sheep anti-mouse IgG horseradish peroxidase conjugate in DPBS+ 1% BSA was added. After 1 hr, the plate was washed, the substrate TMB was added, and the color development was stopped and the plates read as above.

Numbering of substitutions follows the chain as printed. No end group written: not given here.

B1: reshaped MAb PB1.3, heavy chain CY1748RHA with light chain CY1748RLB (antibody, V domains shown)
VH: EAQLVQSGAEVKKPGASVKVSCKASGYTFTNYVMHWVRQAPGQRLEWMGFINPSNDGPKYNERFKNRVTITSDTSASTAYMELSSLRSEDTAVYYCARARPGFDWYFDVWGQGTLVTVSS
VL: DIQMTQSPSTLSASVGDRVTVTCKASQNVATNVVWYQQKPGEAPKALIYTASYRFSGVPSRFSGSGSGTDFTLTISSLQSDDFATYYCQQYNNYPYTFGQGTKLEIK
On to B1, for which the binding result in test [1] is “binds”.

B2: reshaped MAb PB1.3, heavy chain CY1748RHA with light chain CY1748RLC (antibody, V domains shown)
VH: B1 VH
VL: B1 VL with S60E, D70E
B2: in test [1], the binding result is “binds”.

B3: reshaped MAb PB1.3 (HA/LA), IgG1 isotype (antibody, V domains shown)
VH: B1 VH
VL: B1 VL with S60E
With B3, in test [2], the half-maximal inhibitory concentration (IC50) was determined as 2 µg/mL. Further, the “binding relative to PB1.3” value in test [3] was 50%.

B4: reshaped MAb PB1.3 (HB/LD), IgG4 isotype (antibody, V domains shown)
VH: B1 VH with E1Q, A2V
VL: B1 VL with D70E
With B4, the “binding relative to PB1.3” value in test [3] was 50%.

B5: mu MAb PB1.3 (antibody, V domains shown)
VH: EAQLQQSGPELVEPGASVKVSCKASGYTFTNYVMHWVKQKPGQGLEWIGFINPSNDGPKYNERFKNKATLTSDKSSSTAYMELSSLTSEVSAVYFCARARPGFDWYFDVWGAGTTVTVSS
VL: DIVMTQSQKFMSTSVGDRVSVTCKASQNVATNVVWYQQRPGQSPKALIYTASYRFSGVPERFSGSGSGTDFTLTITNVQSEDLADYFCQQYNNYPYTFGGGTKVEIQ
In the case of B5, the IC50 in test [4] came to 1 µg/mL. Moreover, the binding result is “no binding” in test [5] and “no binding (tested: 0.35 mg/ml)” in test [6].

Source of the values: patent publication US5800815, “Antibodies to P-selectin and their uses” (Cytel Corporation, dated 1998).
